This note sets out measurements from publication PMC10083542.

What all share (test): EMSA
Background: A gel shift assay detects complexes by their altered migration in electrophoresis.

Series [1] concerns T1, Dcp1 (Saccharomyces cerevisiae).
T1 sequence: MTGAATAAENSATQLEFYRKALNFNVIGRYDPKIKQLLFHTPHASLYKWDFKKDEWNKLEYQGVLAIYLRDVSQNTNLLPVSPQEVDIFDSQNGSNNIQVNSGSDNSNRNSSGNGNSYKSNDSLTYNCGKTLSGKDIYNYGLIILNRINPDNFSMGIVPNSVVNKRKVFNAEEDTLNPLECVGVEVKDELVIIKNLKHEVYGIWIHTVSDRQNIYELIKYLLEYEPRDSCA
Conditions: EMSA: 10 nM Alexa Fluor 647 RPL41A RNA, 300 mM KOAc, 10 mM MES pH 7 or 5.8, 5 mM BME; temperature not given in material.

In series [2] the test system is T2, Dcp2 1-300 (Saccharomyces cerevisiae).
T2 sequence: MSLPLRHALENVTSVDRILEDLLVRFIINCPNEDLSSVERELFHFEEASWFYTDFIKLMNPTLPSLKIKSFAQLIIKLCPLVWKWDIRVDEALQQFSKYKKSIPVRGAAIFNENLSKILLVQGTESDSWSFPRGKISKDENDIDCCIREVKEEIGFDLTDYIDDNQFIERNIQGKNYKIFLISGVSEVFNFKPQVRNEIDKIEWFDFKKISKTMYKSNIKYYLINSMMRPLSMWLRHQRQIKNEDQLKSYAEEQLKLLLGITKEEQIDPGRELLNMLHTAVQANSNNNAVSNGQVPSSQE
Particulars: EMSA: 10 nM Alexa Fluor 647 RPL41A RNA, 300 mM KOAc, 10 mM MES pH 7 or 5.8, 5 mM BME; temperature not given in material.

Series [3] has as its system Dcp2 H237A (Saccharomyces cerevisiae). Conditions: pH 5.8; EMSA: 10 nM Alexa Fluor 647 RPL41A RNA, 300 mM KOAc, 10 mM MES pH 7 or 5.8, 5 mM BME; temperature not given in material.
The subject of series [4] is T3, Dcp2 (Saccharomyces cerevisiae).
T3 sequence: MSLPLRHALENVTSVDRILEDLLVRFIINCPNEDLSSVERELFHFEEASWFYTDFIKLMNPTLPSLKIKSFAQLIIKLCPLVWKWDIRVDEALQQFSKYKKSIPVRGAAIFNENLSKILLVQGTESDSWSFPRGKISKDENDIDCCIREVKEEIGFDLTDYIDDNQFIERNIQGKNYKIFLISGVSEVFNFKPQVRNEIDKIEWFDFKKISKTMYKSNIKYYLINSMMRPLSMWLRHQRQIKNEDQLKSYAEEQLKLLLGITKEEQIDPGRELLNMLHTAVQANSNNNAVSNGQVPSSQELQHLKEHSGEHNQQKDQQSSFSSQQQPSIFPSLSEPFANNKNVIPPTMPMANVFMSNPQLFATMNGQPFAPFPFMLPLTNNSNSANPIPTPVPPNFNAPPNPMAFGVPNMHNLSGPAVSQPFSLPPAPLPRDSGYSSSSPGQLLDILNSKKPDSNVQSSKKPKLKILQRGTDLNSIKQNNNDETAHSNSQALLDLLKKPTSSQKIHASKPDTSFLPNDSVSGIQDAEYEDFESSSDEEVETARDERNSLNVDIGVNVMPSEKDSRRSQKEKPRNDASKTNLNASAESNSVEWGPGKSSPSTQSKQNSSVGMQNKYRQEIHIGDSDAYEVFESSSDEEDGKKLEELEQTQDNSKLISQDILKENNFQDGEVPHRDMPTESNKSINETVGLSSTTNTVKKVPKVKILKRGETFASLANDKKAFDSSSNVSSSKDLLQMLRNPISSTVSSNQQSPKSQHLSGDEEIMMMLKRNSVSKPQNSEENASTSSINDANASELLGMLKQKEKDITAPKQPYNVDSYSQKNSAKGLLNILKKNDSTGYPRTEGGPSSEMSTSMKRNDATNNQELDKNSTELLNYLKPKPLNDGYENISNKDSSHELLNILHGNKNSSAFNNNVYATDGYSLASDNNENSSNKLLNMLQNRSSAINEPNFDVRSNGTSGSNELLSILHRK
Conditions: EMSA: 10 nM Alexa Fluor 647 RPL41A RNA, 300 mM KOAc, 10 mM MES pH 7 or 5.8, 5 mM BME, temperature not given in material.

Usually Kd stands for the constant that tells how readily two partners part at equilibrium. Low values mean higher affinity, high ones lower affinity. With RPL41A RNA (60 nt), the dissociation constant Kd in series [1] and in series [2] was over 20 µM each time. The substance also had a binding signal (fold lower affinity than wild type) in series [3] of 2. This substance also came in with a binding signal (fold tighter at pH 5.8 than at pH 7) in series [4] of over 16.
